Test results as given in PMC3087504, “DNA Damage in Oocytes Induces a Switch of the Quality Control Factor TAp63α from Dimer to Tetramer” (Cell, 2011).

B1: MBP-TAp63γ (natural protein, mouse, UniProt O88898-5 40-483, looked up)
chain: MSQSTQTSEFLSPEVFQHIWDFLEQPICSVQPIELNFVDEPSENGATNKIEISMDCIRMQDSDLSDPMWPQYTNLGLLNSMDQQIQNGSSSTSPYNTDHAQNSVTAPSPYAQPSSTFDALSPSPAIPSNTDYPGPHSFDVSFQQSSTAKSATWTYSTELKKLYCQIAKTCPIQIKVMTPPPQGAVIRAMPVYKKAEHVTEVVKRCPNHELSREFNEGQIAPPSHLIRVEGNSHAQYVEDPITGRQSVLVPYEPPQVGTEFTTVLYNFMCNSSCVGGMNRRPILIIVTLETRDGQVLGRRCFEARICACPGRDRKADEDSIRKQQVSDSAKNGDAFRQNTHGIQMTSIKKRRSPDDELLYLPVRGRETYEMLLKIKESLELMQYLPQHTIETYRQQQQQQHQHLLQKHLLSACFRNELVEPRGEAPTQSDVFFRHSNPPNHSVYP
notes: 193 amino acids less per monomer than TAp63α; cloned into pMAL-c4X; almost equal distribution between dimers and tetramers at 30 nM; source: E. coli (T7 express), purified (Ni-Sepharose, Amylose resin, SEC); not shown: MBP, N-terminal, kept
B2: TAp63α in oocytes of non-irradiated mice (natural protein, UniProt O88898-1 40-680, looked up)
chain: MSQSTQTSEFLSPEVFQHIWDFLEQPICSVQPIELNFVDEPSENGATNKIEISMDCIRMQDSDLSDPMWPQYTNLGLLNSMDQQIQNGSSSTSPYNTDHAQNSVTAPSPYAQPSSTFDALSPSPAIPSNTDYPGPHSFDVSFQQSSTAKSATWTYSTELKKLYCQIAKTCPIQIKVMTPPPQGAVIRAMPVYKKAEHVTEVVKRCPNHELSREFNEGQIAPPSHLIRVEGNSHAQYVEDPITGRQSVLVPYEPPQVGTEFTTVLYNFMCNSSCVGGMNRRPILIIVTLETRDGQVLGRRCFEARICACPGRDRKADEDSIRKQQVSDSAKNGDGTKRPFRQNTHGIQMTSIKKRRSPDDELLYLPVRGRETYEMLLKIKESLELMQYLPQHTIETYRQQQQQQHQHLLQKQTSMQSQSSYGNSSPPLNKMNSMNKLPSVSQLINPQQRNALTPTTMPEGMGANIPMMGTHMPMAGDMNGLSPTQALPPPLSMPSTSHCTPPPPYPTDCSIVSFLARLGCSSCLDYFTTQGLTTIYQIEHYSMDDLASLKIPEQFRHAIWKGILDHRQLHDFSSPPHLLRTPSGASTVSVGSSETRGERVIDAVRFTLRQTISFPPRDEWNDFNFDMDSRRNKQQRIKEEGE
notes: endogenous murine TAp63α of oocytes; also called TAp63α (NIRR); source: endogenous, ovary lysate of non-irradiated P5 CD-1 mice
B3: λ-phosphatase-treated TAp63α obtained from irradiated oocytes (natural protein, UniProt O88898-1 40-680, looked up)
chain: B2 chain
notes: endogenous murine TAp63α of irradiated oocytes after dephosphorylation in the lysate; kept apart because it was first phosphorylated in vivo and then dephosphorylated; also called dephosphorylated TAp63α (IRR + λPP); source: endogenous, ovary lysate of irradiated P5 mice, treated with λ-Protein Phosphatase (30°C, 45 min)
B4: phosphorylated TAp63α in oocytes of γ-irradiated mice (natural protein, UniProt O88898-1 40-680, looked up)
chain: B2 chain
modifications: phosphorylated after γ-irradiation; sites not stated
notes: endogenous murine TAp63α of oocytes, phosphorylated after DNA damage; both dimer and tetramer fractions hold protein after irradiation; also called TAp63α (IRR); source: endogenous, ovary lysate of P5 CD-1 mice 6 hr after 0.52 Gy γ-irradiation

Experiments:
[1] = biological target: the molecule itself; assay: AUC; sedimentation velocity, 45,000 rpm, 4 μM protein, 4°C, 20 mM potassium phosphate pH 7.5, 200 mM NaCl, 2 mM dithiothreitol
[2] = biological target: the molecule itself; assay: SEC; lysate of 16 ovaries of non-irradiated or γ-irradiated (0.52 Gy) P5 mice, Superose 6 PC 3.2/30, 4°C, 50 mM sodium phosphate, 100 mM NaCl, phosphatase inhibitors; fractions blotted with 4A4; dimer fraction 1.55 ml, tetramer fraction 1.3 ml
[3] = biological target: the molecule itself; assay: SEC; lysate of ovaries of irradiated mice incubated with λ-Protein Phosphatase (30°C, 45 min, 1.25 mM MnCl2), then Superose 6 PC 3.2/30 and western blot

| Protein | stoichiometry N [2] | further results |
| --- | --- | --- |
| B1 |  | stoichiometry N [1]: 4 |
| B2 | 2 |  |
| B3 |  | stoichiometry N [3]: 4 |
| B4 | 4 |  |
